The results in this text go back to patent US20180142016A1.

B1: P601-128 (scFv, from another filing, V domains shown)
VH: EVQLVQSGAEVKKPGESLKISCKGSGYSFSRYWIGWVRQMPGKGLEWMGIIYPRDSDTRYSPSFQGQVTISADKSISTAYLQWSSLKASDTAMYYCATPVVTAGAFDIWGQGTMVTVSS
VL: DIQMTQSPSSVSASVGDRVTITCRASQGISSWLAWYQQKPGKAPKLLIYAASSLQSGVPSRFSGSGSGTDFTLTISSLQPEDFATYYCQQANSFPLTFGGGTKVEIK
B2: P601-149 (scFv, from another filing, V domains shown)
VH: EAQLVESGGGLVKPGGSLRLSCAASGFTFSDYYMGWVRQAPGKGLKWLSYISDRAHTIYDTDSVKGRFTISRDDAKSSLYLRMNNLRVEDTAVYYCARAVGAGEGFDYWGQGTLVTVSS
VL: DIQLTQSPSSLSASVGDRVTITCQASQDVRNYLNWYQQKPGKAPNLLIYDATNLESGVPSRFSGSGSGTDFTFTISSLQPEDFATYYCQQYDNLPLSFGGGTKVEIK
B3: P601-153 (scFv, from another filing, V domains shown)
VH: QMQLVQSGAEVKKPGASVKVSCKASGYTFTSYYMHWVRQAPGQGLEWMGIINPSGGSTSYAQKFQGRVTMTRDTSTSTVYMELSSLRSEDTAVYYCARGGYTGWSPSDPWGQGTLVTVSS
VL: QSALTQPASVSGSPGQSITISCTGTSSDVGGYNYVSWYQQHPGKAPKFMIYDVSKRPSGVSNRFSGSKSGNTASLTISGLQAEDEADYYCGSFTSSITYVFGTGTKVTVL

The target of the test is human ROR1 extracellular domain (ECD) protein (human) (UniProt Q01973). The test can be described thus: competitive phage ELISA, soluble vs coated ROR1. On the technique in general: An ELISA detects its analyte on a solid surface through an enzyme-linked reagent.
Chain of human ROR1 extracellular domain (ECD) protein (human) (Q01973 30-406 limits assumed): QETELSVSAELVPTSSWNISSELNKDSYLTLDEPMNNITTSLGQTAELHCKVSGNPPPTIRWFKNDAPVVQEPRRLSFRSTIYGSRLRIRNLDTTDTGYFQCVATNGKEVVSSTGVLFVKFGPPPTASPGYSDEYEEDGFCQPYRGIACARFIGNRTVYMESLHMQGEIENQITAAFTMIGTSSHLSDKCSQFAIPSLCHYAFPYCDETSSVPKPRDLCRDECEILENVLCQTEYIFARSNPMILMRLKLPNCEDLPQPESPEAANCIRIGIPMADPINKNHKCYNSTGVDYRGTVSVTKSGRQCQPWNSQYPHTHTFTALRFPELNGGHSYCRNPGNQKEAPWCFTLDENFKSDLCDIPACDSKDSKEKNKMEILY
As usually defined, the IC50 is the midpoint of a concentration-inhibition curve. High values mean weaker potency in that assay, low ones greater potency in that assay. B1 registered an IC50 of 263 nM. In the case of B2 it was 2.76 nM; in that of B3, 1.53 nM.
